Laboratory results published in publication PMC5609567 (Biochemical Pharmacology, 2017).

Key:
Assay in all cases: Radioligand binding
V198A RAMP2/CLR = test system: V198A RAMP2/CLR; parameters: species or system human; conditions: 125I-AM bound (span of displacement curve) normalized to WT, n = 3
Description: (§1) This was performed on membranes made from transfected Cos7 cells, essentially as described elsewhere. […] Incubations were terminated by centrifugation.
Radioligand binding data were analysed in Graphpad Prism as described for the cAMP assays. […] Thus for each mutant, the total specific binding relative to WT was calculated from the span values and the 95% confidence limits were calculated. This relies on the Bmax value not changing; while this is consistent with our ELISA data, we cannot rule out a contribution to […] arising from a small change in receptor expression.

N305A RAMP2/CLR = biological target: T1, N305A RAMP2/CLR (Homo sapiens, UniProt O60895+Q16602, N305A); conditions: 125I-AM bound (span of displacement curve) normalized to WT, n = 3
T1 construct: expressed in transfected cells; host or cells: Cos7 (membranes)
T1 sequence (Q16602 23-461 N305A): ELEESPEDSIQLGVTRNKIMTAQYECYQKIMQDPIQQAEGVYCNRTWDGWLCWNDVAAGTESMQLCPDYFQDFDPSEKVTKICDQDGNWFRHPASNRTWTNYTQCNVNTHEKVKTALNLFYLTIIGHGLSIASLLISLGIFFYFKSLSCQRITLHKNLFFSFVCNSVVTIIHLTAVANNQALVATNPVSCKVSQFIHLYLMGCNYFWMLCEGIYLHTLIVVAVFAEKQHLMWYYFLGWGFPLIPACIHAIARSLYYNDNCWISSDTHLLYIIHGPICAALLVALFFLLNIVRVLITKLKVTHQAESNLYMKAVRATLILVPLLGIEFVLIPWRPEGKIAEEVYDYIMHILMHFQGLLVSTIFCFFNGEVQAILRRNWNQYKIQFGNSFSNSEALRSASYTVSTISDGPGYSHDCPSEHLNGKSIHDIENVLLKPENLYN
T1 sequence (O60895 43-175): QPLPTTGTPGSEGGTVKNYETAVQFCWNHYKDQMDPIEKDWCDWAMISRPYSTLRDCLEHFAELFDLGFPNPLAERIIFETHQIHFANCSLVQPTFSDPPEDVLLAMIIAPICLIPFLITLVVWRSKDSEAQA
Description: as §1
(§2) Radioligand binding data were analysed in Graphpad Prism as described for the cAMP assays.

WT RAMP1/CLR = biological target: T2, WT RAMP1/CLR (Homo sapiens, UniProt O60894+Q16602); conditions: WT CLR/RAMP1, Cos7 membranes
T2 construct: expressed in transfected cells; host or cells: Cos7 (membranes)
T2 sequence (Q16602 23-461): as the sequence (Q16602 23-461 N305A) above, with A283N counted along it
T2 sequence (O60894 27-148): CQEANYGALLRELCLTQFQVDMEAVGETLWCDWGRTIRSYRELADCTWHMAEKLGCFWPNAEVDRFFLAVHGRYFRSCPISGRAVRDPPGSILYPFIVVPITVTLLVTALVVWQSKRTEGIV
Description: as §1, §2

H374A RAMP1/CLR = biological target: T3, H374A RAMP1/CLR (Homo sapiens, UniProt O60894+Q16602, H374A); conditions: H374A CLR/RAMP1, Cos7 membranes
T3 construct: expressed in transfected cells; host or cells: Cos7 (membranes)
T3 sequence (Q16602 23-461 H374A): as the sequence (Q16602 23-461 N305A) above, with A283N, H352A counted along it
T3 sequence (O60894 27-148): as the sequence (O60894 27-148) above
Description: as §1, §2

M230A RAMP2/CLR = biological target: T4, M230A RAMP2/CLR (Homo sapiens, UniProt O60895+Q16602, M230A); conditions: 125I-AM bound (span of displacement curve) normalized to WT, n = 3
T4 construct: expressed in transfected cells; host or cells: Cos7 (membranes)
T4 sequence (Q16602 23-461 M230A): as the sequence (Q16602 23-461 N305A) above, with M208A, A283N counted along it
T4 sequence (O60895 43-175): as the sequence (O60895 43-175) above
Description: as §1, §2

F349A RAMP2/CLR = biological target: T5, F349A RAMP2/CLR (Homo sapiens, UniProt O60895+Q16602, F349A); conditions: 125I-AM bound (span of displacement curve) normalized to WT, n = 3
T5 construct: expressed in transfected cells; host or cells: Cos7 (membranes)
T5 sequence (Q16602 23-461 F349A): as the sequence (Q16602 23-461 N305A) above, with A283N, F327A counted along it
T5 sequence (O60895 43-175): as the sequence (O60895 43-175) above
Description: as §1, §2

E348A RAMP2/CLR = biological target: T6, E348A RAMP2/CLR (Homo sapiens, UniProt O60895+Q16602, E348A); conditions: 125I-AM bound (span of displacement curve) normalized to WT, n = 3
T6 construct: expressed in transfected cells; host or cells: Cos7 (membranes)
T6 sequence (Q16602 23-461 E348A): as the sequence (Q16602 23-461 N305A) above, with A283N, E326A counted along it
T6 sequence (O60895 43-175): as the sequence (O60895 43-175) above
Description: as §1, §2

## [^125I]-human (13–52) iodotyrosyl^52adrenomedullin [125I-AM]
V198A RAMP2/CLR
  % Ligand bound: 116.2 ± 3.7 %
N305A RAMP2/CLR
  % Ligand bound: 62.7 ± 4.7 %
WT RAMP1/CLR
  specific binding of 125I-AM: 78 ± 208 dpm/mg
H374A RAMP1/CLR
  specific binding of 125I-AM: 5243 ± 112 dpm/mg
M230A RAMP2/CLR
  % Ligand bound: 109.4 ± 3.7%
F349A RAMP2/CLR
  % Ligand bound: 132.3 ± 4.3 %
E348A RAMP2/CLR
  % Ligand bound: 147.9 ± 2.9 %
